Among the data in paper PMC3078909 are pKa values, retold here.

Data set [1] concerns Cys14. Put plainly: chemical modification (MMTS inactivation followed by enzyme activity). Conditions: not stated for the pKa determination (MMTS inactivation and activity assays were at 25°C); 100 mM TEA, 10 mM EDTA adjusted to the desired pH; free enzyme, 5 µg/mL, 80 µM MMTS.
Data set [2] addresses T1, Cys15 (UniProt position 15, AANWKCNGSES). The data set is described as above. Conditions: not stated for the pKa determination (MMTS inactivation and activity assays were at 25°C), 100 mM TEA, 10 mM EDTA adjusted to the desired pH, free enzyme, 5 µg/mL.
Data set [3] addresses Cys15 (UniProt position 14, AANWKCNGSQQ). The description is as above. Conditions: not stated for the pKa determination (MMTS inactivation and activity assays were at 25°C); 100 mM TEA, 10 mM EDTA adjusted to the desired pH; free enzyme, 5 µg/mL, 80 µM MMTS.
Data set [4] has as its target T1, Cys15. Put plainly: chemical modification (as in ref 24; this article says its new determinations were made 'under the same conditions'). As to conditions: free enzyme; cited from earlier work.
Data set [5] deals with T2, Cys14 (UniProt position 14, AANWKCNGSQQ). Put plainly: chemical modification (MMTS inactivation followed by enzyme activity). As to conditions: not stated for the pKa determination (MMTS inactivation and activity assays were at 25°C); 100 mM TEA, 10 mM EDTA adjusted to the desired pH; free enzyme, 5 µg/mL, 80 µM MMTS.
For data set [6], the target named is T2, Cys14. As to the kind of experiment: chemical modification (as in ref 24; this article says its new determinations were made 'under the same conditions'). Conditions: free enzyme; cited from earlier work.
[7] abbreviates: 10 and 80 µM MMTS (mean of both).

As for “Chimera TcTIM 2,3, 5-8 (TcTIM with regions 1 and 4 of TbTIM) (Trypanosoma cruzi / Trypanosoma brucei chimera; regions 1 and 4 of TcTIM replaced by the TbTIM sequence (13 + 5 differing residues, not listed individually in the text))”, the pKa in the data set with Cys14 [1] is reported as 10.61±0.06.

As to “Chimera TcTIM 1-4 (regions 1-4 of TcTIM, regions 5-8 of TbTIM) (Trypanosoma cruzi / Trypanosoma brucei chimera; regions 5-8 of TcTIM replaced by the TbTIM sequence (individual substitutions not listed in the text; Figure 1 is image only))”, in the data set with Cys15 [2] (10 µM MMTS), the pKa is listed as 9.17±0.12.

“Chimera TcTIM 1 (region 1 of TcTIM, regions 2-8 of TbTIM) (Trypanosoma cruzi / Trypanosoma brucei chimera; region 1 of TbTIM replaced by the TcTIM sequence (13 differing residues plus a one-residue N-terminal length difference; individual substitutions not listed in the text))” displayed a pKa in the data set with Cys15 [3] of 9.49±0.08.

Turning to “Chimera TcTIM 1-3 (regions 1-3 of TcTIM, regions 4-8 of TbTIM) (Trypanosoma cruzi / Trypanosoma brucei chimera; regions 4-8 of TcTIM replaced by the TbTIM sequence (individual substitutions not listed in the text))”, the pKa with Cys15 [2] (setting [7]) worked out at 9.86±0.05.

Turning to “Triosephosphate isomerase (TcTIM), wild type (Trypanosoma cruzi)”, the pKa in the data set with Cys15 [2] (10 µM MMTS) is given as 9.27±0.16; with Cys15 [4] it was 9.28±0.07.

“Triosephosphate isomerase (TbTIM), wild type (Trypanosoma brucei)”: the pKa is given as 10.53±0.06 with Cys14 [5] and 10.08±0.03 with Cys14 [6].

Turning to “Chimera TcTIM 1-3, 5-8 (TcTIM with region 4 of TbTIM) (Trypanosoma cruzi / Trypanosoma brucei chimera; region 4 of TcTIM replaced by the TbTIM sequence (5 substitutions, not listed individually in the text))”, in the data set with Cys15 [2] (setting [7]), the pKa came out at 9.59±0.06.
